Assay results published in US20180280504A1, “GLYCAN-INTERACTING COMPOUNDS AND METHODS OF USE” (SIAMAB THERAPEUTICS, INC., priority 2014, published 2018).
Where two headings read alike, the source gives them in different places.

What was measured:
[1] = tested on: MDA-MB-231 cells expressing cell-surface Neu5Ac-STn; assay: Flow cytometry assay to quantify antibody internalization; assay type: cell-based, human; conditions: for % cells exhibiting 488 fluorescence: 4° C.; for internalization (conclusion): Neu5Ac-STn-overexpressing MDA-MB-231 cells
Experimental: For analysis, stably transfected variants of MDA-MB-231 cells (clone TAH3.P10) that express high levels of cell surface-bound Neu5Ac-STn are harvested using 10 mM EDTA and washed with PBS comprising 1% BSA before pelleting by light centrifugation. Cell numbers and viability are determined by trypan blue dye exclusion analysis and cell concentrations are adjusted to 5×10^6 cells/ml in PBS with 1% BSA. 50 μl of cells are added to each well of an assay plate. Cells are combined with 50 μl solutions of antibody or fluorescently-labeled antibody and incubated for 1 hour at 4° C. Following this incubation period, cells are washed with PBS to remove unbound antibody and aliquots are removed for incubation for various times (15, 30, 60 minutes) at 37° C. to allow bound antibody to internalize at a physiologically relevant temperature. After each incubation, cell surface-bound antibody is removed by treating cells with acidic medium (150 mM NaCl, pH=2.5) Cells treated with unlabeled antibody are washed with PBS and fixed with paraformaldehyde fixation buffer (PFA) containing 3% paraformaldehyde and 2% sucrose in PBS for 15 minutes at room temperature. These cells are rinsed again in PBS and treated with blocking buffer made up of PBS with 1% bovine serum albumin (BSA). Cells are incubated for 30 min at room temperature, rinsed in PBS and treated with secondary antibody (allophycocyanin-labeled goat-anti-mouse IgG) for 2 hours at room temperature. All cells are then washed with PBS and subjected to flow cytometry analysis wherein 10,000 events are recorded for each sample. Residual fluorescent signal in acid-treated samples is further quenched via treatment with trypan blue dye.
Flow cytometry analysis was carried out in order to quantify the extent of antibody internalization according to the procedure of Example 15. MDA-MB-231 cells expressing high levels of cell-surface bound Neu5Ac-STn were harvested using StemPro Accutase buffer and washed with PBS comprising 5% FBS before pelleting by light centrifugation. Cell numbers and viability were determined by trypan blue dye exclusion analysis and cell concentrations were adjusted to 5×10^6 cells/ml in PBS with 5% FBS. 50 μl of cells were added to each well of an assay plate. Cells were then combined with 50 μl solutions of antibody S3F or ALEXA FLUOR® 488-conjugated antibodies S3F, 7G9 or GB26.6 and incubated for 1 hour at 4° C. Following this incubation period, cells were washed with PBS to remove unbound antibody and aliquots were removed for incubation for various times (15, 30, 60 minutes) at 37° C. After each incubation, cells were treated with acidic medium (150 mM NaCl, pH=2.5) to remove surface-bound antibody. Cells treated with unlabeled S3F were washed with PBS 5% FCS. Secondary antibody (allophycocyanin-labeled goat-anti-mouse IgG) was added to the cells and incubated for 30 min at 4° C., rinsed in PBS 5% FBS and kept on ice until flow cytometry analysis. All cells were then washed with PBS and subjected to flow cytometry analysis wherein 10,000 events were recorded for each sample.
Culturing and harvesting of MDA-STn+ cells was performed according to Example 14. Staining of MDA-STn+ cells with S3F antibody included either unlabeled S3F or S3F directly labeled with ALEXA FLUOR® 488 (Thermo Fisher Scientific, Pittsburgh, Pa.). Stained control vials were kept at 4° C. until analysis was performed. Controls included a GB26.6 antibody negative control for STn binding, unstained control, and unlabeled S3F antibody followed by an APC secondary antibody. Vials for each experimental time point (15, 30 and 60 min) were incubated in complete media at 37° C. 5% CO2 to allow for antibody internalization. Immediately prior to analysis by flow cytometry, non-internalized antibody was stripped from the cell surface of experimental samples using 150 mM NaCl pH 2.5 (acidic buffer).

MDA-MB-231-STn+ cells = assay: Cell viability assay with secondary antibody-drug conjugate (2° ADC), STn+ cells; assay type: cell-based, human; conditions: for IC50: MDA-MB-231-STn+ cells
Experimental: Cell viability assays are performed to screen anti-STn antibodies of the present invention in the presence and absence of secondary antibody-drug conjugates (2° ADCs). The purpose of the screen is to identify the ability of each anti-STn antibody to inhibit cell growth. Antibodies with potent cell growth inhibition are used to design direct antibody-drug conjugates (ADCs). Using such secondary antibody-drug conjugates (2° ADCs) in cell-based cytotoxic assays can quickly pre-screen many ADC candidates against tumor cells. Based on the assay, a naked antibody candidate is directly added to cells in the presence of a 2° ADC. Internalization of the mAb/2° ADC complex into cells that express a high density of the targeted antigen can achieve a dose-dependent drug release within the cells, causing a cytotoxic effect to kill the cells (e.g., tumor cells), while cells expressing a low density of the targeted antigen are not affected (e.g., normal cells).
To perform cell viability assays, cell lines described in the present application (MDA-MB-231 parental, MDA-MB-231-STn+, and OV-90) are prepared and cultured for the assays. The cell culture is optimized for cell density by plating different densities of cells (e.g., 2,000, 4,000 and 7,500 per well) on a 96-well plate and observing the cell growth for 96 hours. The plating condition in which cells reach around 90% confluence at the end of the 96 hours is identified and the optimal cell number is then used in the final viability assay.
Duplicate or triplicate cell plates for each cell line are used for testing each antibody candidate.
For cell viability assays, data points are collected for each antibody candidate with duplicates for each data point. Each antibody candidate is diluted in serial concentrations from 0.3 pM to 20 nM.
Alternatively, data points are collected for each antibody candidate with triplicates for each data point. Each antibody candidate is diluted in serial concentrations from 1 pM to 20 nM.
Cell viabilities are measured by Cell-Titer Glo luminescence based assays.
Three anti-STn monoclonal antibodies (anti-STn antibodies S3F, 7G9 and 2D4) and an anti-EGFR monoclonal antibody LA22 were tested for internalization. Six plates of cell culture, two per cell line (MDA-MB-231 parental, MDA-MB-231-STn+, and OV-90), were used to assay the antibody candidates. Each plate can be used to assay the four antibody candidates simultaneously. A secondary anti-IgG antibody conjugated to MMAF (monomethyl auristatin phenylalanine), a non-permeable Aurastatin analog, was used as the 2° ADC. Cell viability was then measured using CellTitreGlo Luminescent Cell Viability Assay (Promega, Madison, Wis.).

[2] = ALEXA FLUOR 488-conjugated antibody, acid
[3] = ALEXA FLUOR 488-conjugated antibody, no acid
[4] = with 2° ADC Fab αMFc-CL-MMAF, CellTitreGlo, read-out: IC50 (nM), secondary internalization assay

B1: S3F: 3F1 variable domains combined with IgG2a constant domains; heavy chain SEQ ID NO: 63, light chain SEQ ID NO: 64 (antibody)
heavy: QVQLQQSDAELVKPGASVKISCKASGYTFTDHAIHWVKQKPEQGLDWIGYISPGNGDIKYNEKFKDKVTLTADKSSSTACMHLNSLTSEDSAVYFCKRSLLALDYWGQGTTLTVSSAKTTAPSVYPLAPVCGDTTGSSVTLGCLVKGYFPEPVTLTWNSGSLSSGVHTFPAVLQSDLYTLSSSVTVTSSTWPSQSITCNVAHPASSTKVDKKIEPRGPTIKPCPPCKCPAPNLLGGPSVFIFPPKIKDVLMISLSPIVTCVVVDVSEDDPDVQISWFVNNVEVHTAQTQTHREDYNSTLRVVSALPIQHQDWMSGKEFKCKVNNKDLPAPIERTISKPKGSVRAPQVYVLPPPEEEMTKKQVTLTCMVTDFMPEDIYVEWTNNGKTELNYKNTEPVLDSDGSYFMYSKLRVEKKNWVERNSYSCSVVHEGLHNHHTTKSFSRTPGK
light: DIVMTQSHKFMSTSVGDRVSITCKASQDVGTNIAWYQQKPGRSPKVLIYSASTRHTGVPDRFTGSGSGTDFTLTISNVQSEDLTDYFCQQYSSFPLTFGVGTKLELKRADAAPTVSIFPPSSEQLTSGGASVVCFLNNFYPKDINVKWKIDGSERQNGVLNSWTDQDSKDSTYSMSSTLTLTKDEYERHNSYTCEATHKTSTSPIVKSFNRNEC
- % cells exhibiting 488 fluorescence ([1]; ALEXA FLUOR 488-conjugated antibody, then 37° C. 15 min, acid): 22.5%
- % cells exhibiting 488 fluorescence ([1]; ALEXA FLUOR 488-conjugated antibody, then 37° C. 15 min, no acid): 56.6%
- % cells exhibiting 488 fluorescence ([1]; ALEXA FLUOR 488-conjugated antibody, then 37° C. 30 min, acid): 25.9%
- % cells exhibiting 488 fluorescence ([1]; ALEXA FLUOR 488-conjugated antibody, then 37° C. 30 min, no acid): 53.1%
- % cells exhibiting 488 fluorescence ([1]; ALEXA FLUOR 488-conjugated antibody, then 37° C. 60 min, acid): 31.5%
- % cells exhibiting 488 fluorescence ([1]; ALEXA FLUOR 488-conjugated antibody, then 37° C. 60 min, no acid): 50.9%
- % cells exhibiting 488 fluorescence [1, 2]: 9.29%
- % cells exhibiting 488 fluorescence [1, 3]: 57.9%
- % of cells exhibiting fluorescence after the staining period ([1]; ALEXA FLUOR 488-conjugated antibody, no acid, range over samples): 50-57%
- internalization (conclusion) [1]: can be internalized
- IC50 (MDA-MB-231-STn+ cells; unit inferred, b641, read-out: IC50 in the presence of Fab αMFc-CL-MMAF): 0.124 nM
- IC50 (MDA-MB-231-STn+ cells; [4]): 0.058 nM
- activity in MDA-MB-231-STn+ cells (MDA-MB-231-STn+ cells; with 2° ADC Fab αMFc-CL-MMAF): demonstrate activity

B2: 2D4: anti-STn mouse monoclonal, IgG2b κ, from mouse #4407; VH SEQ ID NO: 10, VL SEQ ID NO: 11 (antibody, V domains shown)
VH: QVQLQESGPGLVAPSQSLSITCTVSGFSLISYGVNWVRQPPGKGLEWLGVIWGDGSTNYQSALISRLIISKDNSKSQVFLKLNSLQTDDTATYYCTKGFAYWGQGTLVTVSA
VL: QIVLTQSPAIMSASPGEKVTMTCSASSSVSYMHWFQQKSGTSPKRWIYDTSKLASGVPARFSGSGSGTSYSLTISSMEAEDAATYYCQQWSSNLLTFGAGTKLELK
- IC50 (MDA-MB-231-STn+ cells; [4]): 0.056 nM
- activity in MDA-MB-231-STn+ cells (MDA-MB-231-STn+ cells; with 2° ADC Fab αMFc-CL-MMAF): demonstrate activity

B3: 7G9: anti-STn mouse monoclonal, IgG2b κ, from mouse #4407; VH SEQ ID NO: 12, VL SEQ ID NO: 9 (antibody, V domains shown)
VH: QVQLKESGPGLVAPSQNLSITCTVSGFSLTSYGVNWVRQPPGKGLEWLGVIWGDGSTNYHSALISRLIISKENSKSQVFLKLNSLQTNDTATYYCTKGFVYWGQGTLVTVSA
VL: QIVLTQSPAIMSASPGEKVTMTCSASSSVSYMHWYQQKSGTSPKRWIFDTSKLASGVPARFSGSGSGTSYSLTISSMEAEDAATYYCQQWSSNLLTFGAGTKLELK
- % cells exhibiting 488 fluorescence [1, 2]: approximately 70%
- % cells exhibiting 488 fluorescence [1, 3]: approximately 80%
- % fluorescent cells prior to acid treatment and trypan blue exposure ([1]; ALEXA FLUOR 488-conjugated antibody, 37° C. for various times): 60-80%
- % of cells exhibiting fluorescence after acidic buffer and trypan blue ([1]; ALEXA FLUOR 488-conjugated antibody, 37° C., trypan blue quench of surface signal): 20-45%
- % fluorescent cells after trypan blue ([1]; ALEXA FLUOR 488-conjugated antibody, stained at 4° C., trypan blue): less than 20%
- internalization (conclusion) [1]: successfully internalized
- IC50 (MDA-MB-231-STn+ cells; [4]): 0.181 nM
- activity in MDA-MB-231-STn+ cells (MDA-MB-231-STn+ cells; with 2° ADC Fab αMFc-CL-MMAF): demonstrate activity
